Measurements reported in patent US20070154994.

Biological target: T1, TGF-β receptor I-K coil fusion protein (kinase domain)
T1 chain: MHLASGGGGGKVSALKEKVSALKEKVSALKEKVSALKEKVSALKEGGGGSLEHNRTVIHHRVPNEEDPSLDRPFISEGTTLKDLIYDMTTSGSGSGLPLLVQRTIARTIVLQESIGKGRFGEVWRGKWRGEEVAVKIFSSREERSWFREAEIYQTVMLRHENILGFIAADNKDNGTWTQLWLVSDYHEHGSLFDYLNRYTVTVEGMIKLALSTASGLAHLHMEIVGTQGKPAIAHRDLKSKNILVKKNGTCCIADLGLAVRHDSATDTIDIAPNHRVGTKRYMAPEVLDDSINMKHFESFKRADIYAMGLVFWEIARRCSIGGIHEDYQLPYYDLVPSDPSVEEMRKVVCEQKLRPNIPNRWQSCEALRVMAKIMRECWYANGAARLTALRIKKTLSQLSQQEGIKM

B1: TGF-β receptor II-E coil fusion protein (kinase domain) (protein)
chain: MHLASGGGGGEVSALEKEVSALEKEVSALEKEVSALEKEVSALEKGGGGSLERVNRQQKLSSTWETGKTRKLMEFSEHCAIILEDDRSDISSTCANNINHNTELLPIELDTLVGKGRFAEVYKAKLKQNTSEQFETVAVKIFPYEEYASWKTEKDIFSDINLKHENILQFLTAEERKTELGKQYWLITAFHAKGNLQEYLTRHVISWEDLRKLGSSLARGIAHLHSDHTPCGRPKMPIVHRDLKSSNILVKNDLTCCLCDFGLSLRLDPTLSVDDLANSGQVGTARYMAPEVLESRMNLENAESFKQTDVYSMALVLWEMTSRCNAVGEVKDYEPPFGSKVREHPCVESMKDNVLRDRGRPEIPSFWLNHQGIQMVCETLTECWDHDPEARLTAQCVAERFSELEHLDRLSGRSCSEEKIPEDGSLNTTK
autophosphorylation with P33-gamma ATP, SDS-PAGE and phosphorimaging: Lane 4 corresponding to the heterodimer shows the most autophosphorylation
